Test results: patent publication US20200317768A1 (published 2020)
Changes are numbered by the printed parent chain.

T1: cynomolgus monkey FcγRIIIaS extracellular domain, C-terminal His-tag (cynomolgus monkey, UniProt Q8SPW2 21-206 at identity 1.00))
T1 construct: also called cyno FcγRIIIaS; cynoFcγRIIIaS
T1 chain: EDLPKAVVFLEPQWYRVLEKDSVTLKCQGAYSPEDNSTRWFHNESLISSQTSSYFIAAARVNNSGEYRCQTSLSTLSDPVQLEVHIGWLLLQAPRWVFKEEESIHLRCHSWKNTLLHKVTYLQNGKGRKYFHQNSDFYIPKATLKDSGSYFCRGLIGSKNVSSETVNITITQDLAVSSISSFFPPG

T2: cynomolgus monkey FcγRIIa1 extracellular domain, C-terminal His-tag (cynomolgus monkey)
T2 construct: also called cyno FcγRIIa1; cynoFcgRIIa1
T2 chain: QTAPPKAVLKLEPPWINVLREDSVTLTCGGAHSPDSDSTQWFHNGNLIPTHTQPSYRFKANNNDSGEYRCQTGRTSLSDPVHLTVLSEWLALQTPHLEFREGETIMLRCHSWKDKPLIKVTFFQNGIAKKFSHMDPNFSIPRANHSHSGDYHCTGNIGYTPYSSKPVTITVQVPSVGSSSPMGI

T3: human FcγRIIaR extracellular domain, C-terminal His-tag (human, UniProt P12318 34-217)
T3 construct: also called human FcγRIIa (type R); FcgRIIaR
T3 chain: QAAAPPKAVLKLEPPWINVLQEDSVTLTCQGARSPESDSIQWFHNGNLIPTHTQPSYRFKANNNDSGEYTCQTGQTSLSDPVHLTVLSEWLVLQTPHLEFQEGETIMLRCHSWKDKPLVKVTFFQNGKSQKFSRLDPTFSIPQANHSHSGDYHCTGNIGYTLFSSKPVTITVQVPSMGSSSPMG

T4: human FcγRIIaH extracellular domain, C-terminal His-tag (human, UniProt P12318 34-217)
T4 construct: also called human FcγRIIa (type H); FcgRIIaH
T4 sequence: T3 chain with R134H

T5: cynomolgus monkey FcγRIIb extracellular domain, C-terminal His-tag (cynomolgus monkey)
T5 construct: also called cyno FcγRIIb; cynoFcγRIIb
T5 chain: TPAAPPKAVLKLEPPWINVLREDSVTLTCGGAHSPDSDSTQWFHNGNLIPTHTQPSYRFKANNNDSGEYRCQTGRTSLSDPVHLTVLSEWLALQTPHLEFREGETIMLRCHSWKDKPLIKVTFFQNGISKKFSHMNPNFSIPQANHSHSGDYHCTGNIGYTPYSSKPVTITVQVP

T6: cynomolgus monkey FcγRIIa3 extracellular domain, C-terminal His-tag (cynomolgus monkey)
T6 construct: also called cyno FcγRIIa3; cynoFcgRIIa3
T6 chain: T2 chain with P95T, T121A, A128S, H133P, D135N

T7: human FcγRIIb extracellular domain, C-terminal His-tag (human, UniProt P31994 43-217)
T7 construct: also called human FcgRIIb; FcgRIIb
T7 sequence: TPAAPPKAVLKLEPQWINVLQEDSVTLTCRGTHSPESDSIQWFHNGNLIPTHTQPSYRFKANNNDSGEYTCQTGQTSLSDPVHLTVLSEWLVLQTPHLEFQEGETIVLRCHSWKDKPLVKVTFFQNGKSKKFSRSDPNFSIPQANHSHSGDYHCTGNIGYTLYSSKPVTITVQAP

B1: M103205H795-MY101/M103202L889-SK1 (antibody, human IgG1, kappa)
heavy: QVTLKESGPVLVKPTETLTLTCTVSGIDLSHDDISWVRQAPGKGLEWVGIISYAGSTYYASWAKGRLTISKDTSKNQVVLTMTNMDPVDTATYYCARGVPAYSHGGDLWGQGTLVTVSSASTKGPSVFPLAPSSKSTSGGTAALGCLVKDYFPEPVTVSWNSGALTSGVHTFPAVLQSSGLYSLSSVVTVPSSSLGTQTYICNVNHKPSNTKVDKKVEPKSCDKTHTCPPCPAPELLNGPSVFLFPPKPKDTLMISRTPEVTCVVVDVSEEDPEVKFNWYVDGVEVHNAKTKPREEQYNSTYRVVSVLTVLHQDWLNGKEYKCKVSNKALPKPIEKTISKAKGQPREPQVYTLPPSREEMTKNQVSLTCLVKGFYPSDIAVEWESNGQPENNYKTTPMVLDSDGSFFLYSKLTVDKSRWQQGNVFSCSVMHEALHNHYTQKSLSLSP
light: DIVMTQSPATLSLSPGERATLSCTSSQSVYHANWLSWFQQKPGQPPKLLIYWASTLAYGVPSRFSGSGSGTDFTLTISSLQPEDAATYYCAGGYGGGRYAFGQGTKVEIKRTVAAPSVFIFPPSDEQLKSGTASVVCLLNNFYPREAKVQWKVDNALQSGNSQESVTEQDSKDSTYSLSSTLTLSKADYEKHKVYACEVTHQGLSSPVTKSFNRGEC
notes: also called MS1032LO06-MY101
B2: M103205H795-MY105/M103202L889-SK1 (antibody, human IgG1, kappa)
heavy: B1 heavy with S241V, K332A
light: B1 light
notes: Substitutions introduced into M103205H795-SG1; expressed with M103202L889-SK1 as light chain
B3: M103205H795-MY117/M103202L889-SK1 (antibody, human IgG1, kappa)
heavy: B1 heavy with L236W, S269A, K332A
light: B1 light
notes: as for B2
B4: M103205H795-MY147/M103202L889-SK1 (antibody, human IgG1, kappa)
heavy: B1 heavy with L237W, K332A
light: B1 light
notes: as for B2
B5: M103205H795-MY141/M103202L889-SK1 (antibody, human IgG1, kappa)
heavy: B1 heavy with S269A, E270H, K332A
light: B1 light
notes: as for B2
B6: M103205H795-MY115/M103202L889-SK1 (antibody, human IgG1, kappa)
heavy: B1 heavy with S269A, K332A
light: B1 light
notes: as for B2
B7: M103205H795-MY197/M103202L889-SK1 (antibody, human IgG1, kappa)
heavy: B1 heavy with E270D
light: B1 light
notes: as for B2

Biological target: T1, cynomolgus monkey FcγRIIIaS …
Assay: SPR (Biacore); KD of SG1 / KD of variant;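 note: relative to parent M103205H795-SG1 carrying the SG1 human heavy chain constant region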
Protocol: (§1) The kinetic analysis of interactions between these antibodies and FcγR was carried out using BIACORE® T200 or BIACORE® 4000 (GE Healthcare). HBS-EP+ (GE Healthcare) was used as the running buffer, and the measurement temperature was set to 25° C. A chip produced by immobilizing Protein A. Protein A/G or mouse anti-human IgG kappa light chain (BD Biosciences) onto a Series S Sensor Chip CM4 or CM5 (GE Healthcare) by the amine-coupling method was used. […] After the measurement, the antibody captured on the chip was washed off by allowing reaction with 10 mM glycine-HCl, pH1.5 and 25 mM NaOH so that the chip was regenerated and used repeatedly. The sensorgrams obtained as measurement results were analyzed by the 1:1 Langmuir binding model using the BIACORE® Evaluation Software to calculate the binding rate constant ka (L/mol/s) and dissociation rate constant kd (l/s), and the dissociation constant KD (mol/L) was calculated from these values. […] Regarding such interactions, KD values were calculated using the following 1:1 binding model described in BIACORE® T100 Software Handbook BR1006-48 Edition AE.
(§2) The behavior of interacting molecules according to the 1:1 binding model on BIACORE® can be described by Equation 1: Req=C·R max/(KD+C)+RI, wherein, Req is a plot of steady-state binding levels to analyte concentration. C is concentration, RI is bulk refractive index contribution in the sample, and Rmax is analyte binding capacity of the surface. When this equation is rearranged, KD can be expressed as Equation 2: KD=C·Rmax/(Req−RI)−C. KD can be calculated by substituting the values of Rmax, RI, and C into Equation 1 or Equation 2. From the current measurement conditions, RI=0, C=2 μmol/L can be used.

| KD fold (SG1 = 1) [fold] | Binder |
| --- | --- |
| 0.11 | B1 |
| 0.28 | B2 |
| 0.36 | B3 |
| 0.07 | B4 |
| 0.08 | B5 |
| 0.42 | B6 |
| 0.17 | B7 |

Biological target: T2, cynomolgus monkey FcγRIIa1 …
Assay: SPR (Biacore); KD of SG1 / KD of variant;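 note: relative to parent M103205H795-SG1 carrying the SG1 human heavy chain constant region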
Protocol: as §1, §2

| KD fold (SG1 = 1) [fold] | Binder |
| --- | --- |
| 2.9 | B1 |
| 2.7 | B2 |
| 1.2 | B3 |
| 1.5 | B4 |
| 1.5 | B5 |
| 1.4 | B6 |
| 5.5 | B7 |

Biological target: T3, human FcγRIIaR extracellular domain, …
Assay: SPR (Biacore); KD of SG1 / KD of variant;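 note: relative to parent M103205H795-SG1 carrying the SG1 human heavy chain constant region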
Protocol: as §1, §2

| KD fold (SG1 = 1) [fold] | Binder |
| --- | --- |
| 1.3 | B1 |
| 0.8 | B2 |
| 1.1 | B3 |
| 1 | B4 |
| 0.7 | B5 |
| 1.7 | B6 |
| 1.5 | B7 |

Biological target: T4, human FcγRIIaH extracellular domain, …
Assay: SPR (Biacore); KD of SG1 / KD of variant;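 note: relative to parent M103205H795-SG1 carrying the SG1 human heavy chain constant region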
Protocol: as §1, §2

| KD fold (SG1 = 1) [fold] | Binder |
| --- | --- |
| 1.4 | B1 |
| 0.5 | B2 |
| 0.8 | B3 |
| 0.6 | B4 |
| 0.8 | B5 |
| 0.7 | B6 |
| 1.9 | B7 |

Biological target: T5, cynomolgus monkey FcγRIIb extracellular …
Assay: SPR (Biacore); KD of SG1 / KD of variant
Protocol: as §1, §2

| KD fold (SG1 = 1) [fold] | Binder |
| --- | --- |
| 5.1 | B1 |
| 4.6 | B2 |
| 1.8 | B3 |
| 3.9 | B4 |
| 1 | B5 |
| 2.3 | B6 |
| 10.6 | B7 |

Biological target: T6, cynomolgus monkey FcγRIIa3 …
Assay: SPR (Biacore); KD of SG1 / KD of variant
Protocol: as §1, §2

| KD fold (SG1 = 1) [fold] | Binder |
| --- | --- |
| 4.7 | B1 |
| 13.1 | B2 |
| 1.7 | B3 |
| 2.6 | B4 |
| 0.9 | B5 |
| 2.2 | B6 |
| 12.1 | B7 |

Biological target: T7, human FcγRIIb extracellular domain, …
Assay: SPR (Biacore); KD of SG1 / KD of variant
Protocol: as §1, §2

| KD fold (SG1 = 1) [fold] | Binder |
| --- | --- |
| 9.4 | B1 |
| 8.1 | B2 |
| 7.7 | B3 |
| 5.5 | B4 |
| 4.2 | B5 |
| 14.4 | B6 |
| 11.8 | B7 |
